# From patent US20250108100A1, “C-TERMINAL FRAGMENT OF APOLIPOPROTEIN E AND APPLICATION THEREOF IN INHIBITING y-SECRETASE ACTIVITY” (SYNPHATEC (SHANGHAI) BIOPHARMACEUTICAL TECHNOLOGY CO., LTD., priority 2022, published 2025)
# Entries after “also recorded” stand apart in the source; their conditions may differ.
# B1: ApoE CT: C-terminal fragment of ApoE, positions 216-299 of SEQ ID NO: 12; SEQ ID NO: 33 (protein)
# chain: ARMEEMGSRTRDRLDEVKEQVAEVRAKLEEQAQQIRLQAEAFQARLKSWFEPLVEDMQRQWAGLVEKVQAAVGTSAAPVPSDNH
# How the values were obtained:
# 5×FAD mice = test: Amyloid plaques in brain of 5×FAD mice after AAV neuronal expression; assay type: in vivo, mouse
# Experimental: 0-7 months old C57 wild-type mice and AD model mice (5×FAD mice [Tg6799], mice expressing APP and PS1 comprising pathogenic mutations. The expressed APP comprises three mutations: K670N/M671L, I716V, V717I; and PS1 comprises two mutations: M146L, L286V). The mice were given sufficient food and water, and were reared at room temperature with a 12 h/12 h light-dark cycle, and the feeding environment reached the SPF (Specific Pathogen Free) standard.
# • a) The brain was taken by perfusion. The mice were perfused at the heart, the blood was washed out with 20 ml PBS, and then the mice were perfused with 20 ml 4% PFA. • b) Fixation and dehydration. The mice were fixed with 4% PFA at 4° C. for 24 hours, and then dehydrated with 30% sucrose at 4° C. • c) Mouse brain slices. After 24 hours of dehydration, the mice brain was cut into slices at a thickness of 40 μm, stored in frozen buffer solution or used for subsequent immunohistochemistry. • d) THS staining. The mouse brain slices were washed three times with ddH2O, 5 minutes each; soaked in 1% THS aqueous solution for 10 minutes; washed twice with 80% ethanol, each time for 3 minutes; washed once with 95% ethanol for 3 minutes. Immunohistochemistry was performed subsequently. If THS staining is not performed, the following immunohistochemistry was performed directly. • e) Immunohistochemistry. The mouse brain slices were washed three times with 1×PBS for 10 minutes each time; the cell membrane was permeated using 0.1% Triton-X100; the brain slices were blocked by using 5% donkey or goat serum; then the primary antibody was incubated at 4° C., shaken overnight (12-16 h); washed three times with 1×PBS for 10 minutes each time; the secondary antibody was incubated, shaken at room temperature for 1-2 h; washed three times with 1×PBS for 10 minutes each time. • f) Patching and sealing. • g) Imaging, 24 hours post sealing. • h) Images were processed and signal density was analyzed by Image J.
# Adeno-associated virus AAV-CT (AAV2/9-hSyn-ApoE CT) and AAV-GFP (AAV2/9-hSyn-EGFP-WPRE-pA) expressed in neurons were purchased from Tertu Biotechnology Company.
# 1 μl of the adeno-associated virus prepared above was injected into the cerebral cortex (x, y, z, +/−1.6, 0, −1) and hippocampus (x, y, z, +/−1.5, −2, −1.5) of 1-month-old mice by using a stereotaxic injection device.
# Human APP and PS1 with five fAD mutations are expressed in neurons of 5×FAD mice: K670N/M671L+I716V+V717I mutations in APP and M146L+L286V mutations in PS1 (Oakley et al., 2006). All mice were housed under a 12 h light-dark cycle (light from 8 am to 8 pm) with ad libitum access to food and water. All mouse procedures were performed in accordance with the Guide for the Care and Use of Laboratory Animals of the Chinese Academy of Sciences and the National Institutes of Health.
# Mice were anesthetized with isoflurane and perfused with 4% PFA. Dissected mouse brains were fixed overnight in 4% PFA and cryoprotected overnight in 30% sucrose. A cryostat (Leica, CM3050S) was used to obtain frozen brain slices ([…]) from fixed and cryoprotected mouse brains. Floating slices were washed 3 times with ddH2O and then incubated with 1% THS (SIGMA) in water for 5 minutes at room temperature. Next, the slices were washed twice with 80% ethanol and once with 95% ethanol for 3 minutes each. The samples were washed with ddH2O and 3 times with 1×PBS before IHC.
# After being deeply anesthetized with isoflurane, mice (5 weeks old) were placed in a stereotaxic apparatus (RWD Instruments). The zero point (x, y, z, 0, 0, 0) is Bregma. Lentivirus (lentivirus-GFP, lentivirus-ApoE and lentivirus-ApoE-IRES-GFP) and AAV (AAV2/9-hSyn-EGFP-WPRE-pA and AAV2/9-hSyn-ApoECT; purchased from Shanghai Taitool Bioscience Co. Ltd.) were injected into the cortex (x, y, z, +/−1.6, 0, −1) or hippocampus (x, y, z, +/−1.5, −2, −1.5), injected 1 ul on each injection site. The mice were then returned to their cages for rehabilitation after surgery.
# APP = test: Cell surface expression of APP in HEK 293T cells (surface biotinylation, Western blot); assay type: cell-based
# Experimental: FIGS. 29A-29K show ApoE CT is still able to regulate APP metabolism when α- or β-secretase is inhibited. […] N=9. FIGS. 29C-29D show ELISA assay and statistical analysis of Western blot assay for the effects of ApoE CT on Aβ production from co-expressed APP and BACE1 in HEK 293T cells treated with 1 μM ADAM10 inhibitor GI254023X; control group received no inhibitor treatment. FIG. 29C: Aβ40 in cell culture medium; FIG. 29D: Aβ40 in cell lysates. N=6. FIGS. 29E-29F show Western blot detection and statistical analysis of the effects of ApoE CT on the production of α-CTF from co-expressed APP in HEK 293T cells treated with 5 μM BACE1 inhibitor AZD3839; the control group received no inhibitor treatment. N=10. FIGS. 29G-29H show Western blot detection and statistical analysis of α-CTF produced by co-expressing APPM596V and GFP or ApoE CT in HEK 293T cells, respectively. N=7. […] Cell surface proteins of HEK 293T cells expressing GFP(−) and ApoE CT(+) were labeled with sulfo-N-hydroxysuccinimide-biotin and isolated with streptavidin-coupled agarose beads.
molecule,measurement,setting,value
B1,average plaque size,"5×FAD mice; AAV at 4 weeks, after 10 weeks, subiculum, vs GFP",significantly reduced
same,average area of each amyloid plaque,"5×FAD mice; AAV at 4 weeks, six months expression, subiculum, vs GFP",smaller
same,percentage of total amyloid plaque area,"5×FAD mice; after 10 weeks, subiculum",significantly reduced
same,plaque density,"5×FAD mice; after 10 weeks, subiculum",significantly reduced
same,density of amyloid plaques,5×FAD mice; six months expression,decreases; also recorded: lower
same,proportion of total area of amyloid plaques,5×FAD mice; six months expression,smaller proportion
same,fluorescence intensity of amyloid plaques,"5×FAD mice; six months expression, THS",weaker
same,APP expression on the cell surface,APP,did not alter APP expression on the cell surface
